These results are taken from the RNAGym collection of RNA variant scans (doi:10.1073/pnas.2313332121).

Sequences and labels used below:
B1: TPR t1 (parent)
chain: GACCAAUCUGCCCUCAGAGCUCGAGAACAUCUUCGGAUGCAGAGGAGGCAGGCUUCGGUGGCGCGAUAGCGCCAACGUCCUCAACCUCCAAUGCAUCCCACCACAUGAUGAUGCCUGAAGAGCCUUGGUUUUUUG

In the series the parent is B1. In words: polymerase ribozyme fitness, log enrichment relative to wild type (log ratio); higher = more active; in vitro selection for triplet polymerase activity. The essentials:
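The heterodimeric triplet polymerase ribozyme's subunits were each mutagenized into PCR-built libraries and transcribed. Every library was selected once, in triplicate, by annealing with a biotinylated primer, the partner subunit and triplets, incubating frozen at −7 °C, gel-excising extended constructs, capturing on streptavidin beads and running RT-PCR. Input and output libraries were Illumina-sequenced, with genotypes kept only at ≥10 input reads and ≥1 read per output. Fitness, from inverse-variance-weighted replicate averages, is the base-2 logarithm of genotype enrichment over wild-type enrichment.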
Turning to G10U U14A G113C G122A, the “polymerase ribozyme fitness (log ratio)” value was -3.62. G10C C49A G51C G57C C72U: the “polymerase ribozyme fitness (log ratio)” value is -4.25. In the case of G10U C34A G47A it was -3.85. In the case of G10U C62A G71U G127C it was -0.898; in that of C11A C12U G25U C56U G69C C98U G110A, -6.12; in that of G10C C40G C56G G61A A68U G77U U112C, -6.74. As for G10C G57C, the figure is -0.669; as for G10U C82A U92G U116C A119U, -5.07. Turning to G10U A29U C70G G113A, the “polymerase ribozyme fitness (log ratio)” value is -4.17. In the case of G10U G44A G52U G122A C123U C124G U130G it was -1.61; in that of G10C C64U C123G U133A, 1.47. As for C11A C12U U38A G69C, the figure is -2.89.

G10C U38G C85U G122A C123G: the “polymerase ribozyme fitness (log ratio)” value stood at 0.725. In the case of G10A U116C it was -0.237; in that of G10C C13A C82U A83C, -0.888. As for G10U C20A A66G, the figure is -4.29; as for C11A C12U G61U A100U, -1.23; as for G10C C85A, -0.827. As for G10U A46C C70G C94U U133A G135U, the figure is -4.06; as for C11A A91C, -2.43. Consider G10U G42A G61C, for which the “polymerase ribozyme fitness (log ratio)” value was -5.15. In the case of G10U G71U C94A it was -1.09. As for G10C G39C C49G A111U, the figure is -4.94; as for G10C C40G, -1.34. For the variant C11A A24C G122A C123G, the “polymerase ribozyme fitness (log ratio)” value is -5.76.

Take G10U A121U: the “polymerase ribozyme fitness (log ratio)” value is 1.92.

Consider G10U C22G G60C C88A, for which the “polymerase ribozyme fitness (log ratio)” value was -4.88. On to C11A C15U C28G C123G G128U, for which the “polymerase ribozyme fitness (log ratio)” value was -5.63.

Consider G10U G77A C79U C94U, for which the “polymerase ribozyme fitness (log ratio)” value is -0.432. In the case of G10U U112G C123G it was 0.673. As for G10C G36U A50C U78G C86A, the figure is -4.45; as for G10U U32C C56A C72A, -1.43.

With C11A A29G C56G A91C U112A A121G G122C, the “polymerase ribozyme fitness (log ratio)” value is -1.75. As for C11A C28G C80U, the figure is -3.39.

Consider C11A C12U G57U U87G G93A C102A, for which the “polymerase ribozyme fitness (log ratio)” value is -4.56. In the case of G10C A75U C98A U109A G127C it was -5.13; in that of G10U C11U C73A C88A U126C, -2.02; in that of G10C G60U, -0.819. In the case of G10C A18U C73G G113C it was -5.21; in that of C11A A16U C40U C56A, -4.65. As for G10C G17U G63A, the figure is -4.45. Take G10U C12G C89G U96A G110U U112A G117C: the “polymerase ribozyme fitness (log ratio)” value was -5.26. In the case of C11A A118G it was -1.55; in that of G10U A29U C86A U112C, -1.11.

For G10C G48A C64U G117U U125G, the “polymerase ribozyme fitness (log ratio)” value is -6.03. As for G10C G35A U59C U112A, the figure is -5.77; as for G10C G52U G60A C89A, -4.24.

On to G10C C80A U130G, for which the “polymerase ribozyme fitness (log ratio)” value was -3.78. As for G10U C82U, the figure is -0.583. As for C11A C22G G48A A119G, the figure is -3.23; as for G10U G17A C56G C62U C79U, -4.53; as for G10U C12G G17U G113A U126G, -4.16. In the case of C11A A119U it was -1.67. Take G10U G39U: the “polymerase ribozyme fitness (log ratio)” value is -0.472. For G10C A16U, the “polymerase ribozyme fitness (log ratio)” value is -1.98. In the case of G10U A118U it was -0.131; in that of G10U C22U G47A U96A C123A, -5.89.

Take G10U A37C C85A: the “polymerase ribozyme fitness (log ratio)” value was -1.32. As to C11A C13G C72U C88G G113A, the “polymerase ribozyme fitness (log ratio)” value was -5.81.

C11A C13U A50U C62U: the “polymerase ribozyme fitness (log ratio)” value was -2.9. In the case of G10U G42A G45A G77C U78G U96C G128A U131G it was -3.17.

As to G10U C15G G61A, the “polymerase ribozyme fitness (log ratio)” value was -1.63.

G10U G69A A91C: the “polymerase ribozyme fitness (log ratio)” value is -7.2. For the variant C11A A37U C62A C102A, the “polymerase ribozyme fitness (log ratio)” value is -5.51.

With G10U G45A U78A A100U, the “polymerase ribozyme fitness (log ratio)” value is -1.09. In the case of G10C C49A G51C G57C C72U C115G it was -3.99. In the case of G10C G117A it was -1.75; in that of G10U C13G C72U, -0.677; in that of G10U C64U G113C, -1.87. In the case of G10C C12A A83C C124G it was 1.04; in that of G10U G47C C104U, -1.69; in that of C11A A29U U59A C70U G120A, -1.3. For G10U G58U U78C G122A C124U, the “polymerase ribozyme fitness (log ratio)” value turned out to be 0.946. As for G10C C40U G45U, the figure is -1.47. Consider G10U C15U A18U C49A C70U C80A G93U G117U, for which the “polymerase ribozyme fitness (log ratio)” value was -7.04.

As for C11A C13G C31U A46U U109G, the “polymerase ribozyme fitness (log ratio)” value is -7.98.

In the case of G10C C49A G71U, the “polymerase ribozyme fitness (log ratio)” value is -1.17.

On to G10U U59C C85U, for which the “polymerase ribozyme fitness (log ratio)” value is -0.716. As for G10C A66U C97U G120U C123U, the figure is 0.489; as for G10U A75U, -0.536; as for G10U C34U G44C U112C, -5. In the case of G10U G45U it was -0.583; in that of G10U C40G C124U U129A, -1.91.
